Laboratory results from the DeepSol protein solubility set.

Assay: soluble on expression in E. coli; label from the status in PepcDB or PDB records

GPGSMTVVTTESGLKYEDLTEGSGAEARAGQTVSVHYTGWLTDGQKFDSSKDRNDPFAFVLGGGMVIKGWDEGVQGMKVGGVRRLTIPPQLGYGARGAGGVIPPNATLVFEVELLDV
soluble on expression in E. coli: soluble

DKKQLVLVLCASGATSSMLANAITKGAKQEGVNVESIAMAYGQHKDVIADYDLIILAPQMASMYEELKADCASKGTKSATTTGKEYVKLTRDPVGALKFALDIINE
soluble on expression in E. coli: not soluble

GSHMSSPVNEEENSQRISTLHHQTMPSDLTQDEFTQLSQSIAEFHTYQLGNGRCSSLLAQRIHAPPETVWSVVRRFDRPQIYKHFIKSCNVSEDFEMRVGCTRDVNVISGLPANTSRERLDLLDDDRRVTGFSITGGEHRLRNYKSVTTVHRFEKEEEEERIWTVVLESYVVDVPEGNSEEDTRLFADTVIRLNLQKLASITEAMNRN
soluble on expression in E. coli: soluble

MDLLDKVMGEMGSKPGSTAKKPATSASSTPRTNVWGTAKKPSSQQQPPKPLFTTPGSQQGSLGGRIPKREHTDRTGPDPKRKPLGGLSVPDSFNNFGTFRVQMNAWNLDISKMDERISRIMFRATLVHTDGRRFELSLGVSAFSGDVNRQQRRQAQCLLFRAWFKRNPELFKGMTDPAIAAYDAAETIYVGCSFFDVELTEHVCHLTEADFSPQEWKIVSLISRRSGSTFEIRIKTNPPIYTRGPNALTLENRSELTRIIEAITDQCLHNEKFLLYSSGTFPTKGGDIASPDEVTLIKSGFVKTTKIVDRDGVPDAIMTVDTTKSPFYKDTSLLKFFTAKMDQLTNSGGGPRGHNGGRERRDGGGNSRKYDDRRSPRDGEIDYDERTVSHYQRQFQDERISDGMLNTLKQSLKGLDCQPIHLKDSKANRSIMIDEIHTGTADSVTFEQKLPDGEMKLTSITEYYLQRYNYRLKFPHLPLVTSKRAKCYDFYPMELMSILPGQRIKQSHMTVDIQSYMTGKMSSLPDQHIKQSKLVLTEYLKLGDQPANRQMDAFRVSLKSIQPIVTNAHWLSPPDMKFANNQLYSLNPTRGVRFQTNGKFVMPARVKSVTIINYDKEFNRNVDMFAEGLAKHCSEQGMKFDSRPNSWKKVNLGSSDRRGTKVEIEEAIRNGVTIVFGIIAEKRPDMHDILKYFEEKLGQQTIQISSETADKFMRDHGGKQTIDNVIRKLNPKCGGTNFLIDVPESVGHRVVCNNSAEMRAKLYAKTQFIGFEMSHTGARTRFDIQKVMFDGDPTVVGVAYSLKHSAQLGGFSYFQESRLHKLTNLQEKMQICLNAYEQSSSYLPETVVVYRVGSGEGDYPQIVNEVNEMKLAARKKKHGYNPKFLVICTQRNSHIRVFPEHINERGKSMEQNVKSGTCVDVPGASHGYEEFILCCQTPLIGTVKPTKYTIIVNDCRWSKNEIMNVTYHLAFAHQVSYAPPAIPNVSYAAQNLAKRGHNNYKTHTKLVDMNDYSYRIKEKHEEIISSEEVDDILMRDFIETVSNDLNAMTINGRNFWA
soluble on expression in E. coli: not soluble

MMKKTPTSTKDSLPNKEMNDLPRLASAVLPLCSQHPGQCGLFPLEKSLDAFAARYRLAEMAEHTLDVQYYIWQDDMSGRLLFSALLAAAKRGVRVRLLLDDNNTPGLDDILRLLDSHPRIEVRLFNPFSFRLLRPLGYITDFSRLNRRMHNKSFTVDGVVTLVGGRNIGDAYFGAGEEPLFSDLDVMAIGPVVEDVADDFARYWYCKSVSPLQQVLDVPEGEMADRIELPASWHNDAMTHRYLRKMESSPFINHLVDGTLPLIWAKTRLLSDDPAKGEGKAKRHSLLPQRLFDIMGSPSERIDIISSYFVPTRAGVAQLLRMVRKGVKIAILTNSLAANDVAVVHAGYARWRKKLLRYGVELYELKPTREQSSTLHDRGITGNSGASLHAKTFSIDGKTVFIGSFNFDPRSTLLNTEMGFVIESETLAQLIDKRFIQSQYDAAWQLRLDRWGRINWVDRHAKKEVILKKEPATSFWKRVMVRLASILPVEWLL
soluble on expression in E. coli: not soluble

MKSIGTQILQTERLILRRFVESDAEAMFQNWASSAENLTYVTWDPHPDVEITRNSICNWVASYTNLNYYKWAICLKENPEQVIGDISIVKIDEADLSCEIGYVLGKAYWGNGMMTETLKAILDFCFTQAGFQKVRARYASLNPASGRVMEKAGMSYLQTIVNGVERKGYLADLIYYGISREEC
soluble on expression in E. coli: not soluble

MGSDKIHHHHHHMEQTGYGEHIAHTVRNVPYETAIQTEDIAGELAKKFALPYNHAKTITNVKLKRMADKGEIERLQKGIYCHVKQTFFGKVTPTADQVLLKTLMVQNGAKIGYESGASLLNKLGLTTLIPRDIEITTNRYGAKLPEGCHIKLRKPPMPVTDENWKYLQFIDVLMYLPDAHTDAEKPEVLLRQHAKEQQLDYLTLIFTARKYYPQKIVLPLIDLLMEVENETASR
soluble on expression in E. coli: not soluble

MCLNFREDNVMKKIMVIFGTRPEAIKMAPLVKEIDHNGNFEANIVITAQHRDMLDSVLSIFDIQADHDLNIMQDQQTLAGLTANALAKLDSIINEEQPDMILVHGDTTTTFVGSLAAFYHQIPVGHVEAGLRTHQKYSPFPEELNRVMVSNIAELNFAPTVIAAKNLLFENKDKERIFITGNTVIDALSTTVQNDFVSTIINKHKGKKVVLLTAHRRENIGEPMHQIFKAVRDLADEYKDVVFIYPMHRNPKVRAIAEKYLSGRNRIELIEPLDAIEFHNFTNQSYLVLTDSGGIQEEAPTFGKPVLVLRNHTERPEGVEAGTSRVIGTDYDNIVRNVKQLIEDDEAYQRMSQANNPYGDGQASRRICEAIEYYFGLRTDKPDEFVPLRHK
soluble on expression in E. coli: not soluble

MKLKKLQIEPTTFCTLDCEYCHRKSIPPQDLPLEVLDRVNGVAKEYVIYGYGEPLLYPDFFKRIEGFDGKVVISTNGMLDSDILDLADKVGVSIDVNDKFRKGLEVEKALEVLRKLGERGIAEVVVTKDNLELLPAFFERIAEHGSGMLATNVVASNPAIYEQGVYFECSRITVEKVLGLDESILVEAIKDCSRGGGEALRRYKHLLKEVYSKGYSINLLAIFGRKGRVETAFKAEGVFEMLRDLAGDYGVELIEPSFFGDSKARECPYRDSAFLRVDGKISSCMSFAYTHTEYVDGHYKKVEKFCPGNVLKEDIDDVIGKMAEFERVRADMENFPWCADCPYVEGCWYAETNVDCYANLPSCSECLYSSGIAKCLLGD
soluble on expression in E. coli: not soluble

MNNSREDQWLQHYEQQNIQEITPCFNAINIASSSGSSLGDGGAAAHEAAGRRSRASRRAIPTTLLNANPSNFRALVQKFTGRSAGGESNRRKGPVTLDFGSPTTISKEAIFPVSSDRSNNNLDHVVNQHVSNEQRHVTWSGTESMMSYQLGEETNSAVYSSGYDDQDLPREYSGNSSYDESLDHMDYYQDFHRETATLEEFMMRDLDL
soluble on expression in E. coli: soluble

MAERLLQSMSRVAGRCHPDCVKASDEQEDYHASQNAALVAVNLISSARLILKLDAEFTEYSAQFLMDNAGKEDDPGEVDQQRNQVTTENCLRYLAENVWTKKENGQGGMDQQRPVLTVKDCLELAFKKGLPRREHWAHLGCTFKAPPFACQIPRVPVKGEVVEVKTFDEAFKLLVHQPIGAKLHLFSPQIDNVGEGVYKGLTTGNETHYVGLRDVLIASVEEFEGDSVAIVKICYKKKLSFIKVSLSVRFLSVAHDGDKSKFIAPTGLLVDFCVPRLSIN
soluble on expression in E. coli: soluble

SMSMKATRLAIPDVILFEPRVFGDDRGFFFESYNQRAFEEACGHPVSFVQDNHSRSARGVLRGLHYQIRQAQGKLVRATLGEVFDVAVDLRRGSPTFGQWVGERLSAENKRQMWIPAGFAHGFVVLSEYAEFLYKTTDFWAPEHERCIVWNDPELKIDWPLQDAPLLSEKDRQGKAFADADCFP
soluble on expression in E. coli: soluble

MDGELKNLKCNISQLAAITGLHRQTVVSRLSGVPLAPGSNEKNKLYLLTDVIRVLMEAPVSQAAEHQDPNKMTPKERKDWFDSEKGRLWLEKEMKQVVPLPEVRQQMAAIVKAITQVLEVWPDKLERDKGWSADQLNEAQDVVDEVRILLVKAIQETADDDGE
soluble on expression in E. coli: not soluble

MVRVKRSQLREGCVLAEDVLGKTKRPIIPKNTVITKPLLLVLEKFLVEEVDVEPLLANGEPFPNVDSASTAAAKQPMAFYLEAVQRYKTWFQSWQAGLPVDIGEIRGVIISLFERMAGQKRELLMLHHYATKDEYLHHHAVSVGLLAGFLAMQLGYSEGECHQIALAGVLADCGMAKVSKRILTNPSALTEAEFNEVKQHPVFSYRMVQKIPALNHGAKLAVLQHHERNDGSGYPLGVKAERIHPYSQIVAVADVYHAMTSERLYRRKQSPFRAIETMQREQFGKLSTEAVAALVNNLIGLQTGAVVKLSNGEMAEVMFIPSDEPARPIVKIIETGQLLSLSVQRDIYIEEMVQG
soluble on expression in E. coli: not soluble

MGSDKIHHHHHHMDIDRTILVQIQGLLVFESPLHHDERGYFLENWRKKDLLANGVPESFFHHKLQNNVSVSKQGVIRGMHCQGYEKLMTVAYGTFKMIFIDLRIDSPTYKSVDVIDVQPGRAVFVPGGVANGAQSLVNNGILNYLVADYYDPHKNYLGITPLDKDANLSWDSLLKPIISEKDQAAKSFKEVLEIIESSKKKVALIGSTGAVGKVLFDTLRKQSDIDLSCFNRNNIEEALKDFYDMVICTAPSSEKLLTNLSLKNDDAEIEKLVNVLKNIQTGHMILVSTKSVFDSGARYSAIHQKIYNSVIEAHQNSNTIYIMDTLYGKTLKKGFINDLLSRQWTYISNDIVLDKPELENYYQKVNDQLWSLVEPLPNELLSTLEPISDIYPDEMCYQVTAINDLVSHLMANLNRIDGVKLGIDKSEIFTGRQIKNLLKNPDNSTLGRYFKKQEGDFNLENL
soluble on expression in E. coli: not soluble

MQLSPKEFEYQFRCLYRPLNMYALRYTENLDDAEDIVQQAFSDVWEKLVGGTSIQNLKAYMYQTVRNRSLTLITNRQTHCETTELTDLEDLTEEERIIRSERDARLWTAIDHLPTERKKIFLLSKRDGLTYQEIATELGISIKTVEHQISKALKTLRETAIKIYTFFFG
soluble on expression in E. coli: not soluble

MTLMKSNLIAAAEIDRLDTWAKYTAPMCGSCMSSCCTLPVEVKIKDLIRIGIVDEFERGEPAKNIAKRLQKEGIVERYNQKSEIFTLQRMSNNDCLYLDRKSRLCTIYDKRPDTCRNHPKIGPRPGYCAYKPKPQVRPTNTSSRTLERFLEHHHHHH
soluble on expression in E. coli: not soluble

MSFDAKSLQQVREQVAARLRLDAGRPWLMVHAGSGGSANNLSIEQYARLIIKLNQACPELQCILTAGPGEERIAEQLAAELLAHGGNGWIYRSDEGLPKFCQVMANAALFVAGSTGPLHIAAALDVPTIGFFPAHRSATPLRWRPLNSEGRHLAFSPPEDSDHPEDMSQLDPKTMAAAIARWAPPFWRTEHLEHHHHHH
soluble on expression in E. coli: soluble

MAIPKLQSYALPTALDIPTNKVNWAFEPERAALLIHDMQDYFVSFWGRNCPMMDQVIANIAALRQYCKEHHIPVYYTAQPKEQSDEDRALLNDMWGPGLTRSPEQQKVVEALTPDEADTVLVKWRYSAFHRSPLEQMLKDTGRNQLIITGVYAHIGCMTTATDAFMRDIKPFMVADALADFSREEHLMALNYVAGRSGRVVMTESLLPTPVPASKAALRALILPLLDETDEPLDDENLIDYGLDSVRMMGLAARWRKVHGDIDFVMLAKNPTIDAWWALLSRGVE
soluble on expression in E. coli: not soluble

STYPPTPPNVTRLSDESVMLRWMVPRNDGLPIVIFKVQYRMVGKRKNWQTTNDNIPYGKPKWNSELGKSFTASVTDLKPQHTYRFRILAVYSNNDNKESNTSAKFYLQPGAALDPMPVPELLEIEEYSETAVVLHWSLASDADEHLITGYYAYYRPSSSAGEYFKATIEGAHARSFKIAPLETATMYEFKLQSFSAASASEFSALKQGRTQRPK
soluble on expression in E. coli: soluble
